According to the DeepSol protein solubility set:

Experiment: soluble on expression in E. coli; label from the status in PepcDB or PDB records

| Sequence | soluble on expression in E. coli |
| --- | --- |
| MLTGRESLLRLIGKRRRFLPNRHLLLSAHTPNSLNLEFNDYGNLVSLAGDDCRLSEDPTSSDDPSKFSDDLSLSTRKKRRLTQTTLLQSSFLSVPKQLEDGLVICTQQKSILDSETFEFSLVQRSEPSESICCKVEDGSCSPSREESLKTVTLDEDNGEAIETFIVGRKFSDVQDLEIGGDIFLLRHPENVKDRNAIKVISGDSEMLGYLPKDISQCLSPLIDDYDLKFEGTITSVPKKSSEAVLIKVVCHKMRSDGWKECELYGDFKPLWEKVLQVVEHQMQFPPKTTRYQLNFNVLLQEVLRSCSHLFTADEKAFLESFPTLSEDSQRLFIRLYTRKGPWFRLSNISYPEVTDSLQALKDLTVRGFMSSVKDANELDNQKMKEITELLNVTELRDILSMNKVFSRTSRKRDLINSLCSCYNDGTRINLATVILERTGLCAKVSSTAESLIWRVERLFFLNGEQDLSSFVLLDLGIIKYPTYKCIDSEQIFSNRTKLLAYEEAIEVAQLMDESLDNEDPQTVLKCIIIAETRISSSSLDSAHAAAFNRFTAPWVNSKVVLLGVSFFENQKRYNRAVYLLRRLLSCFNCDGRRGYWTVRLSTDLEHMGRPNESLTVAEQGLLDPWVRAGSRVALQRRILRLAKPPRRWKTPTFSNLVDNKIPEVTIQGRSLNCEVGIKNRFYGEDGEQCGVEQLALQYYSGEGGGWQGIHTESSIWLTIFGLLMWDILFSDVPGVFQTRFQVNETQ | not soluble |
| MKFPFHPWRRLLLCALPFAALLTACDDGKKEPPPKPAEVTTYNSVPWDALPATSDADLLAGFNAWRSACARLAKDPVWGEPCASATTVAADPTAVRAFLQERMQVYSLRSSSNGDQGLITGYYEPVYHGSLSQGEKTPVPVYGVPDDLVVVALESVYPELKGKRLRGRLEGRVLKPYDDAATIRDNGSSAPVLAWLGDPMDLQFLQIQGSGRIQLEDGRQLRIGYGDQNGHPYKPVGRWLVEQGLVPKEEISMKRIRDWAEANPQRVSELLASNPSFVFFSLRPDSDEGPRGSLNVPLTDGYSVAIDRKVIPLGSLMWLSTTRPDDGSAVVRPVAAQDTGGAIVGEVRADLFWGTGDAAGELAGHMKQPGRLWLLWPKGAPLPAS | not soluble |
| MGSDKIHHHHHHMSNKLTYIVASGDTYTSIVNKINQSTPLTVSQLADANPSIQANQLQIGQALDIPLSTDGLIPDDNPALLTPAAEFMGYWYPYSASCPKNATLSVALYGWGPQKVIEWGKQADVQSHLNGEKYLSFGGGSESGKFTEQALNEITTAITQGQIKGYDGIAYDVEVADANLGAQFANSFEAAKACGFKVLVTISHSAPYDVADKDQLMKSFFINPHIDILSPQLYSKGDESQNDYALTSGSSITWRDYASTKAAIVPSIVHASYYEAAKIYFKNQGVELSGYLQWK | not soluble |
| MGSDKIHHHHHHVIEVIRQRVLPHYGLEGNAAKVSPLGNGHINDTFLVTWDEGSMVLQRLNTSVFQAPWTLVENAELISRHLGEKEGKDYELKVVSPKTTAEGDLGIDLGEAGFWRAIRYLKHSNSIDVVGSEAQAEQAARAFGHFARALCDFDATRIGDVIPKFHFLPGRLAALEQAAADNKAGRLDTCREWVDFALCQRGLLDELAALEPKLPLRVCHNDTKINNMLFDKRDDSAMAIIDLDTCMKGHLMYDFGDMVRTFTSPEAEDSTALDKVRVRPEIFAAICRGYLAELGDVLEAAERESLWLGARIMCLMIGVRFLTDYLNGDLYFHVHREGHNLDRAANQFTLYQSLLTQADRLKPCIF | not soluble |
| MEGLSMDQVVIFKQIFDKVRNDLNYQWFYSELKRHNVSHYIYYLATENVHIVLKNDNTVLLKGLKNIVSVKFSKDRHLIETTSNKLKSREITFQEYRRNLAKAGVFRWVTNIHEQKRYYYTFDNSLLFTESIQKTTQILPRLEHHHHHH | soluble |
| MRDEDFCCAVCLDFFVEPCIIECGHSYCRFCIESHLNINEKCPLCRAHTGNPIRNRQLESLTMSYVSSRNISTEYYERMKSYQKKLLLQNRALVIIWTELNKRPGHSTELCNLVRNVQDEELKSEIMWQVKQQVGVGLEHTGDLQEENVTIRLKNSSSQQ | not soluble |
| MGSDKIHHHHHHMSRPRIHPLQALFGAHEHRPDLPVCDHYAGVEPRMRKALALQADMADTALFDVTLDLEDGAPVGGEPEHARLAAELVSSAANRHGRVGVRVHPYPHPSFADDVRSLLAGAGERLAYLMIPKAQGVEELRDAIAAIEATRREQGLARAVPVHALVETHGALRDVQAIAALPAIESLSFGLMDFVSAHHGAIPAFGMSLAGQFSHPLVLRAKLEISAACHAAGKLPSHCVVTEYSDTQAIAQAATRASRELGYARMWSIHPNQIRPIVEAFAPVPAEIEAALDILLAAQAADWAPIAHRGLLQDRASYRYHWHVLERAARTGRSLPDTARSAFFATAAA | not soluble |
| MGSDKIHHHHHHMQTTTALRLYGKRDLRLETFTLPAMQDDEILARVVTDSLCLSSWKEANQGADHKKVPDDVATRPIIIGHEFCGEILAVGKKWQHKFQPGQRYVIQANLQLPDRPDCPGYSFPWIGGEATHVVIPNEVMAQDCLLTWEGDTWFEGSLVEPLSCVIGAFNANYHLQEGSYNHVMGIRPQGHTLILGGTGPMGLLAIDYALHGPINPSLLVVTDTNKPKLSYARRHYPSEPQTLIHYLDGHEASRDTLLALSGGHGFDDIFVFVPNEQLITLASSLLAPDGCLNFFAGPQDKQFSAPINFYDVHYAFTHYVGTSGGNTDDMRAAVALMQAKKVQTAKVVTHILGLNAAGETTLDLPAVGGGKKLVYTGKAFPLTPLGEIADPELAAIVARHHGIWSQDAEAYLLAHAEDITHD | not soluble |
| LTVLELESQIDVLSRIQFVSRFGSNLVHIEGVKGSGKSWLAQRYLEKWCDDADQVLLMCHPNQSIQQQRGIILKQVVRDPLFNESDSVVDSVGRMLAGEKCNLVLAIDDAHLLSSELLSELWLLVQKAQSAPNWQINILLFAEKGKLTQTLSQMSYGQDNKPVDIDINP | soluble |
| MAHHHHHHMYTHTHTHTHTHTCTHMYLSSTLHRVFSPLVASPPQKEVGSKSNARGGKRVWRKGLASWEPQAGTHAHAHAQTDAEGYLQRTRRKPRPPAHASSLSPPLLLGRSRMGYTRERTNRHFFVSRANAFFSRLPISRIQRALAMEAIKKGSMKPWKHTKEQIIGSPITCNFEYNPRPVRLIGTVMDAHTEETSIKGGLKVYARSEEANMMLWIPAGNPKLKYEVTAAKGSFEHYLDERSKWDEAWLTGRARMK | soluble |
| VSFPSSPPALPAIVARFAVGRPVRAVWVNELGGVTFRVDSGMGAGCEFIKVARRGTADFANEARRLRWAAPYLAVPRVLGVGVDGDWAWLHTDALPGLSAVHPRWRASPQVAVPALGAGLRTLHDSLPVHSCPFDWSTASRLAKLAPARRAELGDSPPVDRLVVCHGDACSPNTILDDTGRCCGHVDFGNLGVADRWADLAVATLSLQWNFPDYPGQVRDDEFFAAYGVAPDPARIDYYRRLWQAEDDSSR | soluble |
| MGEEKKKRTVEITIGGKLRSFDIDDPVLPDWVEEKKLSAGNFPYDKKMKREDYDATLEALQVELVKVQFWLQATGKRVMAVFEGRDAAGKGGAIFATHAYLNPRYARVVALTKPTETERGQWYFQRYISHFPTAGEFVLFDRSWYNRAGVEPVMGFCTPDEHKRFLKETPRLEKMLVHDDIHLFKFWLDIGRETQIERFHDRRQSPLKCWKLSDMDIAALTKWDDYTQKRDEMLEKTHTDAAPWTVVRANDKRRARVNLIRHILLALDYEGKDRQAIGEIDDKILGSGPDFLK | not soluble |
| SSNNFNYGAYHSLEAIYHEMDNIAADFPDLARRVKIGHSFENRPMYVLKFSTGKGVRRPAVWLNAGIHSREWISQATAIWTARKIVSDYQRDPAITSILEKMDIFLLPVANPDGYVYTQTQNRLWRKTRSRNPGSSCIGADPNRNWNASFAGKGASDNPCSEVYHGPHANSEVEVKSVVDFIQKHGNFKGFIDLHSYSQLLMYPYGYSVKKAPDAEELDKVARLAAKALASVSGTEYQVGPTCTTVYPASGSSIDWAYDNGIKFAFTFELRDTGTYGFLLPANQIIPTAEETWLGLKTIMEHVRDNLY | soluble |
| MQSLIGLMRPETGKKLENLNHFIQQFEKVLIAFSGGVDSSTLAAVCSNAGVEVLAVTVLSSVSPRREMEEAKRIAEELGVRHEFLKIDLMDEDFRRNDENRCYYCKRRVLSALVEEAKKRGIEVVLEGTNASDLSDHRPGYRAVRELDGVNSPWVEFGITKEEIREIARSMGYSFHDKPSMACLASRIPFGIEIDEEKLKMVDEAEEAVIELAGVKQVRVRNYDGVAVVEVAGDELRKLLNCAEKVRDKLKKIGFRAVLIDLEGYRSGKRLFKF | not soluble |
| MGSDKIHHHHHHCGGGTERKGLEALVAEYKKLNPDVDFEIIDISYSSYMQKISLAVMSGDVPDLMTITYPFAPELRKYLIDLDPYIEKYLGITPKEYEDAFYNVVKPYIKDENGKIKYVPLHFTVQGLWVNVDYFEKAGIPFPPLGGREEPWTWEEFVEVLRKVKEANNLPYAMSMQYSAERIANYLAIRGAKVLDENLNLVLDKDPKAIKALEDFVNLFKENLCVPAEWVSGQSADNDFYGGVTAVYWAGSWETLDALSVEGKRFLPAYLPKDEYCFGVEGGRFFGAFKTGDKKKEEEAAKFALWAGWKGKGYDIYLKTTLHLSAYKDHKVDYGVPIMESVQKVFGYLAANAPEWIVTVRANPVWSRLYDPLRKQISLVIAGQQDLQTALKNIRAEYERIVEELGIK | not soluble |
| MGSDKIHHHHHHLFDRYEAGETAVLVHIDFTDEGSREDLAELQLLVESAGARSVGVITGSRRAPDRKFFVGTGKAEELAAMVAATDANVVIFNHALSPAQERNLEHLCRCRVLDRTTLILDIFAQRARTHEGKLQVELAQLRHMSTRLVRGWTHLERQKGGIGLRGPGETQLETDRRLLRGRIKNINRRLEKVDKQREQSRRARQRSDMAAVSLVGYTNAGKSTLFNTLTSAEVYAADQLFATLDPTLRKLELPDGAAILADTVGFIRHLPHDLVAAFKATLQETREADLLLHVIDCADEKMRDNIEQVQAVLKEIDADEIPQLIVCNKIDLVEGIKPAIDRDDTGKPFRVWLSAQQNQGLDLLRQAVQELVGNVIAELTLKIPATAGHYLGQFYRLDAIQQKEYDDLGNCILSVRLPDADWRRLAKQSQGELETFIVDTATDRVVC | not soluble |
| PFINIKLVPENGGPTNEQKQQLIEGVSDLMVKVLNKNKASIVVIIDEVDSNNYGLGGESVHHLRQKN | soluble |
| MDLEFGRFPIFSILEDMLEAPEEQTEKTRNNPSRAYMRDAKAMAATPADVIEHPDAYVFAVDMPGIKGDEIQVQIENENVLVVSGKRQRDNKENEGVKFVRMERRMGKFMRKFQLPDNADLEKISAACNDGVLKVTIPKLPPPEPKKPKTIQVQVA | soluble |
| MTRQERILQLPFFENKRELAEQVLKMEREEHVYLPDQFEIKQVPPYSFAEKEAIIGRIHEFYFVSIGSDGAWKYQLFKDEMKCREFFVTLSGITDQQIAFWFNNIELLKGA | not soluble |
| KPKSAVAPPGAPKKEHVNVVFIGHVDAGKSTIGGQIMYLTGMVDERTLEKYEREAKEKNRETWYLSWALDTNQEERDKGKTVEVGRAYFETEKKHFTILDAPGHKSFVPNMIGGASQADLAVLVISARKGEFETGFEKGGQTREHAMLAKTAGVKHLIVLINKMDDPTVNWSNERYEECKEKLVPFLKKVGFNPKKDIHFMPCSGLTGANLKEQSDFCPWYIGLPFIPYLDNLPNFNRSVDGPIRLPIVDKYKDMGTVVLGKLESGSICKGQQLVMMPNKHNVEVLGILSDDVETDSVAPGENLKIRLKGIEEEEILPGFILCDLNNLCHSGRTFDAQIVIIEHKSIICPGYNAVLHIHTCIEEVEITALICLVDKKSGEKSKTRPRFVKQDQVCIARLRTAGTICLETFKDFPQMGRFTLRDEGKTIAIGKVLKLVPEKD | soluble |
